This assay concerns the target biotinylated gp120 165-182 peptide (HIV-1 (AE.A244)). Kind of assay: BLI.

These results are taken from publication PMC4324565.

B1: CH59 unmutated ancestor (CH59-UA) Fab (Fab, V domains shown)
VH: EVQLVESGGGLVQPGRSLRLSCAASGFTFDDYAMHWVRQAPGKGLEWVSGISWNSGSIGYADSVKGRFTISRDNAKNSLYLQMNSLRAEDTALYYCAKDSPRGELPFDYWGQGTLVTVSS
VL: SYELTQPPSVSVSPGQTARITCSGDALPKKYAYWYQQKSGQAPVLVIYEDSKRPSGIPERFSGSSSGTMATLTISGAQVEDEADYYCYSTDSSGNHRVFGGGTKLTVL
One may read the Kd as the concentration at which binding is half-saturated. As for B1, the Kd came out at 500 nM.
